Consider 3 molecules from patent publication US7598354 (NATIONAL RESEARCH COUNCIL OF CANADA, dated 2009).

B1: Cj0638c, inorganic pyrophosphatase (Ppa) (enzyme)
chain: MNLSKIKIGDIPNKINAVIEIPYGSNIKYEIDKDSGAIMVDRVMASAIFYPANYGFIANTLADDGDPVDILVLNEYPIQAGAVIPCRLIGVLIMEDESGMDEKLLAVPNSKIDARYDNIKTYTDLPQATLNKIKNFFETYKILEPNKWVKVQDFKDEKAAIEILEKAIKNYK
B2: Cj0332c, nucleoside diphosphate kinase (Ndk) (enzyme)
chain: MEKTLSIIKPDAVKKGVIGKILDRFESNGLRIAAMKKVQLSKEQAENFYAVHKERPFFKDLVEFMISGPVVVSILEGEGAVLKNRDLMGATNPKEAKAGTIRADFAESIDANAVHGSDSLENAKIEIEFFFKPNEIC
B3: Cj0169, superoxide dismutase (Fe; SodB) (enzyme)
chain: MFELRKLPYDTNAFGDFLSAETFSYHHGKHHNTYVTNLNNLIKDTEFAGKDLVSIIKTSNGGVFNNAAQVYNHDFYFDCIKPSTGCGCGGSCQSIDANLQAALEKEFGSLENFKAEFIKGATGVFGSGWFWLVYNTKNQKLEFVGTSNAATPITEDKVPLLVVDVWEHAYYVDHRNARPAYLEKFYAHINWEFVAKAYEWALKEGMGSVSFYANELHPVK

In the experiment the target is T1, soybean agglutinin (SBA)-alkaline phosphatase conjugate (soybean, UniProt P05046 33-285, conjugated to alkaline phosphatase (EY Laboratories)).
T1 construct: Lectin; Alkaline phosphatase part not described; also called GalNAc-specific lectin; SBA lectin
T1 sequence (P05046 33-285 limits assumed): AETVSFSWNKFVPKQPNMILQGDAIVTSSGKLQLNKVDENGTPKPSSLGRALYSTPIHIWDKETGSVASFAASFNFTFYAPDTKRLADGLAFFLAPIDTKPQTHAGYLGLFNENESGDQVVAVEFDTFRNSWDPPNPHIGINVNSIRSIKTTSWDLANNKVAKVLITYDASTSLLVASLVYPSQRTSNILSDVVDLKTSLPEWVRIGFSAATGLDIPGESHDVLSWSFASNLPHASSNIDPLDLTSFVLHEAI
As to the kind of experiment: Western blot of 2D gel probed with SBA-alkaline phosphatase conjugate.
With B1, the binding result is listed as “no binding (tested: 10 µg/mL)”.
As for B2, the binding result is “no binding (tested: 10 µg/mL)”.
Regarding B3, the binding result is reported as “no binding (tested: 10 µg/mL)”.
